Reference: publication PMC10397247
Read-outs that look alike come from different tables or passages of the source.

How the values were obtained:
[1] = molecular target: T1, 4H1544-bH; experiment: two-hybrid library CCNG1;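 also: natural log of median RNA to DNA barcode read ratio; higher means stronger binding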
T1 chain: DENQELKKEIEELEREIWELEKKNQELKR

[2] = molecular target: T2, 4H1710-bH; experiment: two-hybrid library CCNG1;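 also: natural log of median RNA to DNA barcode read ratio; higher means stronger binding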
T2 chain: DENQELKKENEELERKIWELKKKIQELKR

[3] = molecular target: T3, 4H1899-bH; experiment: two-hybrid library CCNG1;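 also: natural log of median RNA to DNA barcode read ratio; higher means stronger binding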
T3 chain: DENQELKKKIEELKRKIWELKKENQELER

[4] = molecular target: T4, 4H1985-bH; experiment: two-hybrid library CCNG1;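 also: natural log of median RNA to DNA barcode read ratio; higher means stronger binding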
T4 chain: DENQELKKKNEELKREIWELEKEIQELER

[5] = molecular target: T5, 4H3070-bA; experiment: two-hybrid library CCNG1;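 also: natural log of median RNA to DNA barcode read ratio; higher means stronger binding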
T5 chain: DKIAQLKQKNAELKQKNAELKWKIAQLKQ

[6] = molecular target: T6, 4H3162-bH; experiment: two-hybrid library CCNG1;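 also: natural log of median RNA to DNA barcode read ratio; higher means stronger binding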
T6 chain: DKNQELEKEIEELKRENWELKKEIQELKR

[7] = molecular target: T7, 4H3175-bH; experiment: two-hybrid library CCNG1
T7 chain: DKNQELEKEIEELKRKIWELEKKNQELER

[8] = molecular target: T8, 4H3277-bH; experiment: two-hybrid library CCNG1
T8 chain: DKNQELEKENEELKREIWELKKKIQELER

[9] = molecular target: T9, 4H3298-bH; experiment: two-hybrid library CCNG1
T9 chain: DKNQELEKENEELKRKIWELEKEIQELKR

[10] = molecular target: T10, 4H3462-bH; experiment: two-hybrid library CCNG1
T10 chain: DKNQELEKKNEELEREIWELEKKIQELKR

[11] = molecular target: T11, 4H3497-bH; experiment: two-hybrid library CCNG1
T11 chain: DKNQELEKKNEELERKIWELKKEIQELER

[12] = molecular target: T12, 4H3613-bH; experiment: two-hybrid library CCNG1
T12 chain: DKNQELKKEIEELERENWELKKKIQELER

[13] = molecular target: T13, 4H3628-bH; experiment: two-hybrid library CCNG1
T13 chain: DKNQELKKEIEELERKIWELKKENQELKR

[14] = molecular target: T14, 4H3817-bH; experiment: two-hybrid library CCNG1
T14 chain: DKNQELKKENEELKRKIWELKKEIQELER

[15] = molecular target: T15, 4H3858-bH; experiment: two-hybrid library CCNG1
T15 chain: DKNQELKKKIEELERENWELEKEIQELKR

[16] = molecular target: T16, 4H3926-bH; experiment: two-hybrid library CCNG1
T16 chain: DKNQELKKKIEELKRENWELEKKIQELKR

[17] = molecular target: T17, 4H3974-bH; experiment: two-hybrid library CCNG1
T17 chain: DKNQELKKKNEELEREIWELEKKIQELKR

[18] = molecular target: T18, 4H570-bH; experiment: two-hybrid library CCNG1
T18 chain: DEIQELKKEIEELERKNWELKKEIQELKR

[19] = molecular target: T19, 4H591-bH; experiment: two-hybrid library CCNG1
T19 chain: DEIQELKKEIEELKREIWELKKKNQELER

[20] = molecular target: T20, 4H626-bH; experiment: two-hybrid library CCNG1
T20 chain: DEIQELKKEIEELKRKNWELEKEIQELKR

[21] = molecular target: T21, 4H850-bH; experiment: two-hybrid library CCNG1
T21 chain: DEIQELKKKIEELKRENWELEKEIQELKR

[22] = molecular target: T22, 4H906-bH; experiment: two-hybrid library CCNG1
T22 chain: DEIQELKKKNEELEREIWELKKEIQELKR

[23] = molecular target: T23, 4H1392-AA; experiment: two-hybrid library CCmax
T23 chain: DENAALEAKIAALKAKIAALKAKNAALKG

[24] = molecular target: T24, 4H2622-AA; experiment: two-hybrid library CCmax; details: mean of both orientations
T24 chain: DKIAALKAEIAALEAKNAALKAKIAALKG

[25] = molecular target: T25, 4H2705-AA; experiment: two-hybrid library CCmax; details: mean of both orientations
T25 chain: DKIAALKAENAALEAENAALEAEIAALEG

[26] = molecular target: T26, 4H2736-AA; experiment: two-hybrid library CCmax; details: mean of both orientations
T26 chain: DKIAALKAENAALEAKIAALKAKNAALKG

[27] = molecular target: T27, 4H2888-AA; experiment: two-hybrid library CCmax; details: mean of both orientations
T27 chain: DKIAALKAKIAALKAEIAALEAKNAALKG

[28] = molecular target: T28, 4H3049-AA; experiment: two-hybrid library CCmax; details: mean of both orientations
T28 chain: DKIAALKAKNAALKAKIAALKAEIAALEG

[29] = molecular target: T29, 4H3129-AA; experiment: two-hybrid library CCmax
T29 chain: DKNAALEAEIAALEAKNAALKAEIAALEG

[30] = molecular target: T30, 4H337-AA; experiment: two-hybrid library CCmax; details: mean of both orientations
T30 chain: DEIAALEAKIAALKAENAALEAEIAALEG

[31] = molecular target: T31, 4H3587-AA; experiment: two-hybrid library CCmax; details: mean of both orientations
T31 chain: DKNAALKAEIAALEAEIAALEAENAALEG

[32] = molecular target: T32, 4H3590-AA; experiment: two-hybrid library CCmax; details: mean of both orientations
T32 chain: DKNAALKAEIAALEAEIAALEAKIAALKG

[33] = molecular target: T33, 4H3625-AA; experiment: two-hybrid library CCmax; details: mean of both orientations
T33 chain: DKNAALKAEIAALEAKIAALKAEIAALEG

[34] = molecular target: T34, 4H384-AA; experiment: two-hybrid library CCmax; details: mean of both orientations
T34 chain: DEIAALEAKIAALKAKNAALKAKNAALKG

[35] = molecular target: T35, 4H3905-AA; experiment: two-hybrid library CCmax; details: mean of both orientations
T35 chain: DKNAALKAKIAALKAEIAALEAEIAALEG

[36] = molecular target: T36, 4H4038-AA; experiment: two-hybrid library CCmax; details: mean of both orientations
T36 chain: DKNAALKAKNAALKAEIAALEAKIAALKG

[37] = molecular target: T37, 4H43-AA; experiment: two-hybrid library CCmax; details: mean of both orientations
T37 chain: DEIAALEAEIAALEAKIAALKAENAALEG

[38] = molecular target: T38, 4H451-AA; experiment: two-hybrid library CCmax; details: mean of both orientations
T38 chain: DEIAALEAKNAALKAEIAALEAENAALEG

[39] = molecular target: T39, 4H510-AA; experiment: two-hybrid library CCmax; details: mean of both orientations
T39 chain: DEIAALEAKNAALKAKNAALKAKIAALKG

[40] = molecular target: T40, 4H_APH; experiment: two-hybrid library CCmax; details: mean of both orientations
T40 chain: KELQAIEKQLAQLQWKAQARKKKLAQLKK

[41] = molecular target: T41, 4H_BCR; experiment: two-hybrid library CCmax; details: mean of both orientations
T41 chain: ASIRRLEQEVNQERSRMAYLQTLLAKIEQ

[42] = molecular target: 4H_GCN4; experiment: two-hybrid library CCmax
[43] = molecular target: GCN2_T; experiment: two-hybrid library CCmax
[44] = molecular target: T42, O11-AA; experiment: two-hybrid library CCmax; details: mean of both orientations
T42 chain: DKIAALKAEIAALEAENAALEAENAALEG

[45] = molecular target: T43, O13-AA; experiment: two-hybrid library CCmax; details: mean of both orientations
T43 chain: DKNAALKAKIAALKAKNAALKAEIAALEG

[46] = molecular target: T44, O14-AA; experiment: two-hybrid library CCmax; details: mean of both orientations
T44 chain: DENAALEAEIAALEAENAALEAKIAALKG

[47] = molecular target: T45, 4H342-bA; experiment: two-hybrid library CCNG1
T45 chain: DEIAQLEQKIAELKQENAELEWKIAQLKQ

[48] = molecular target: T46, 4H3632-bA; experiment: two-hybrid library CCNG1
T46 chain: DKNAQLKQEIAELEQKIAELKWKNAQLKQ

[49] = molecular target: T47, 4H496-bA; experiment: two-hybrid library CCNG1
T47 chain: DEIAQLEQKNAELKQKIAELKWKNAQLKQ

[50] = molecular target: T48, 4H883-bA; experiment: two-hybrid library CCNG1
T48 chain: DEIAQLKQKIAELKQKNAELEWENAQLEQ

4H_GCN4, sequence (chain, as listed by the source): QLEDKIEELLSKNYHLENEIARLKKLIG

Binder: DENQELKKEIEELEREIWELEKKNQELKR [4H1544-bH]
- interaction score [1]: 0.599
- interaction score [2]: 0.154
- interaction score [3]: 1.61
- interaction score [4]: 0.533
- interaction score [5]: 0.826
- interaction score [6]: 0.879
- interaction score [7]: -0.419
- interaction score [8]: 0.893
- interaction score [9]: 0.51
- interaction score [10]: 0.608
- interaction score [11]: 0.211
- interaction score [12]: 0.423
- interaction score [13]: -0.0215
- interaction score [14]: 0.913
- interaction score [15]: 0.651
- interaction score [16]: 0.243
- interaction score [17]: 0.61
- interaction score [18]: 0.232
- interaction score [19]: 1.2
- interaction score [20]: -0.838
- interaction score [21]: 1.29
- interaction score [22]: 0.0592

Binder: DENAALEAKIAALKAKIAALKAKNAALKG [4H1392-AA]
- interaction score [23]: -0.666
- interaction score [24]: -1.4
- interaction score [25]: -1.59
- interaction score [26]: -1.42
- interaction score [27]: -0.448
- interaction score [28]: -0.0185
- interaction score [29]: -1.07
- interaction score [30]: -0.783
- interaction score [31]: 2.24
- interaction score [32]: 1.89
- interaction score [33]: -0.223
- interaction score [34]: -1.28
- interaction score [35]: 0.91
- interaction score [36]: 0.56
- interaction score [37]: 1.25
- interaction score [38]: -0.924
- interaction score [39]: -1.62
- interaction score [40]: -1.59
- interaction score [41]: -2.2
- interaction score [42]: -1.48
- interaction score [43]: -1.63
- interaction score [44]: 1.25
- interaction score [45]: -1.99
- interaction score [46]: 0.474

Binder: DKIAQLKQKNAELKQKNAELKWKIAQLKQ [4H3070-bA]
- interaction score ([5]; mean of both orientations): -0.355
- interaction score [47]: 1.46
- interaction score [48]: -1.37
- interaction score [49]: -1.47
- interaction score [50]: 0.052
